{"source": "paper PMC6021111", "about": "“Murine leukemia virus p12 tethers the capsid-containing pre-integration complex to chromatin by binding directly to host nucleosomes in mitosis” (PLoS Pathogens, 2018)", "key": {"[1]": {"molecular_target": "partner chain of the complex shown [chain 1 S65A R66A L67A R68A G69A]", "test": "SILAC-MS of GST pull-down", "settings": "mitotic 293T cell lysates"}, "[2]": {"molecular_target": "C-terminally His-tagged N-MLV CA WT (N-tropic murine leukaemia virus (N-MLV))", "sequence (P03336 215-477 limits assumed)": "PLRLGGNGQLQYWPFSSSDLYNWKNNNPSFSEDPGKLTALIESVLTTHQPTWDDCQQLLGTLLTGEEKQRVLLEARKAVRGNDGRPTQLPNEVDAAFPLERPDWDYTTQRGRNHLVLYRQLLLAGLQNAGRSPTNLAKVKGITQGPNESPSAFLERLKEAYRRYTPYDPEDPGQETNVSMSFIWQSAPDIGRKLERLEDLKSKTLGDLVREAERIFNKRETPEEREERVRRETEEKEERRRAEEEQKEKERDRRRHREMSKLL", "test": "co-sedimentation"}, "[3]": {"test_system": "hCBS soluble competitor peptide (prototypic foamy virus (PFV))", "test": "competition", "settings": "scale: fold decrease of nucleosome binding to immobilised hCBS"}, "[4]": {"molecular_target": "GST-tagged Mo-MLV p12_M63I (Moloney murine leukaemia virus (Mo-MLV))", "test": "pull-down"}, "[5]": {"molecular_target": "GST-tagged FeLV p12 A53V (feline leukaemia virus (FeLV))", "test": "pull-down"}, "[6]": {"molecular_target": "GST-tagged FeLV p12 I52M (feline leukaemia virus (FeLV))", "test": "pull-down"}, "[7]": {"molecular_target": "GST-tagged Mo-MLV p12_M63I with S61D (Moloney murine leukaemia virus (Mo-MLV))", "test": "pull-down"}, "[8]": {"molecular_target": "GST-tagged Mo-MLV p12_M63I with S61A (Moloney murine leukaemia virus (Mo-MLV))", "test": "pull-down"}, "[9]": {"molecular_target": "GST-tagged Mo-MLV p12_M63I with S61E (Moloney murine leukaemia virus (Mo-MLV))", "test": "pull-down"}}}
{"substance": "", "values": [{"measurement": "screen value (SDs from the mean)", "setting": "[1]; replicate R1", "result": 1.1}, {"measurement": "screen value (SDs from the mean)", "setting": "[1]; replicate R2", "result": 2.1}]}
{"substance": "N-MLV p12_WT (purified, untagged) (natural protein)", "values": [{"measurement": "amount of p12 pelleted by the CA-nanotubes (67 pmol CA loaded)", "setting": "[2]", "result": 11.2, "unit": "pmol"}, {"measurement": "stoichiometry N (p12 per CA (1:6))", "setting": "[2]", "result": 0.167}]}
{"substance": "recombinant H3.3 poly-nucleosomes", "values": [{"measurement": "binding signal", "setting": "[3]", "result": 10}]}
{"substance": "histone H2B (from UniProt P62807 1-126) (natural protein)", "values": [{"measurement": "fold more histones pulled down from mitotic than from interphase cell lysates", "setting": "[4]", "result": 4, "unit": "fold"}, {"measurement": "fold reduction of H2B precipitation after kenpaullone", "setting": "[4]", "result": 3.5, "unit": "fold"}, {"measurement": "fold reduction of H2B precipitation after roscovitine", "setting": "[4]", "result": 1.5, "unit": "fold"}, {"measurement": "fold difference in histone precipitation against the WT FeLV p12", "setting": "[5]", "result": "< 2", "unit": "fold"}, {"measurement": "fold difference in histone precipitation against the WT FeLV p12", "setting": "[6]", "result": "< 2", "unit": "fold"}, {"measurement": "fold reduction in histone pull down against GST-p12 M63I", "setting": "[7]", "result": 6, "unit": "fold"}, {"measurement": "fold reduction in histone pull down against GST-p12 M63I", "setting": "[8]", "result": 3, "unit": "fold"}, {"measurement": "fold reduction in histone pull down against GST-p12 M63I", "setting": "[9]", "result": 1.5, "unit": "fold"}]}
